Experiment: soluble fraction after stress (log2 fold change); higher = more stays soluble; pooled small domains, quantitative proteomics
Conditions: stress: 75 degC
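Note: 20 min heating vs room temperature control held 20 min.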

HMNNGAEIGAEIRSLRKARGLTLEDLAAKIGRSVGYISQVERGISPLTIPNLKAIAEVLGVGINWFFRGEA
soluble fraction (log2): -1.15

HMNNILNYTIAELMEILKIDDLETENVINSSNNLINKSINENNFPLAEFYEDVKNNLIEFIETFDS
soluble fraction (log2): -0.771

HMNNLELSEEEKSVLTIIEKEGLIELDKLKTKLELSNKKWDKTLKFLTKNKLAKVVKNDNGLFVEL
soluble fraction (log2): -0.158

HMNNLLEDIKARLMAQAEAGGHIDTETELAEHFGVTRYRIRKELDLLSQMGLLRRQPKNGIEVLTV
soluble fraction (log2): -0.171

HMNNLNDIIEIIRIYAKNYARNNPSWNHSELINRIRDKALGEAEDYNIRLSEEDLALITELSLRGL
soluble fraction (log2): -0.713

HMNNMVNTLLKLLAEQDVLRGIVRRFTPSSVFVFLQNEEVEVELPLQGRSLAPGQLVELTQEGASVALKRL
soluble fraction (log2): -0.936

HMNNPLLDKVYQLMKQNNITEEEIVRAVAMKGYFPDDMKLGDYPDDFIDGVLIGAWDQIKQFIINNISPFK
soluble fraction (log2): -0.281

HMNNSDIDITVGKNSISINNPNRTNIIIYSSNGMLIDSSKNASYKRNLPSGIYIVKSGSSTHKVIV
soluble fraction (log2): -0.905

HMNNTIKFFVSQDDDSTRLDVFLSKKIENLTRSNIKKFINLNNVKINKATINSPSKKVKLYDEIEIKFSS
soluble fraction (log2): -2.46

HMNNTIKFSVDSQNSGKRLDIFLTENIKNYTRSFLKKLIENRQVKLNNNFIISPSERVKFKDQININILQ
soluble fraction (log2): -1.8

HMNNVDIMGRMVYDDQHREVINFGKYKGVLVTEVLKKDPGYFSWIQQGDFPSDMKRIMMAIKLRM
soluble fraction (log2): -2.61

HMNNVDQLIEQYKTLPGGLLPLLHAIKHALGYIPESTVGSIAKGFNLSRAEVHGVISFYHDFNTQP
soluble fraction (log2): 0.07

HMNPAYTDSRMKTFLEELPVMKASLSQKHVTRFLVWQEYIGRHPDGYGKSQFFYHLKQNLVAAKG
soluble fraction (log2): -0.391

HMNPDTERIREFVAVSLKNRKVATSGEIQNMIVKQFKNFKLKSHGYSNMKSFLSSIDKIQLNSNGKYSLK
soluble fraction (log2): -1.89

HMNPEDDLLKAIIMKYFSNAQVQVDKNVIEYLLKRVDRDYQNLYNILEKINILSLQRKSKITTHLIRDIM
soluble fraction (log2): -0.414

HMNPFLELTEREMDVLRLIAIGRNNQEIASELVISEKTVKTHITNIFSKLHFKDRTQAAAYAWQSGIVR
soluble fraction (log2): -1.73

HMNPHGVAIIDVRKGKASTLRSLATSVRSLGEWDQLKIPIFNLESLTSLVLWHGLDAIVKEPESLQSNLIL
soluble fraction (log2): -0.513

HMNPHIQFWSLLRRQPDYNSAYKDELKAMFVWQWSGEKTESLNEFYKTDPYRYKSMLMDMRNRAL
soluble fraction (log2): -3.33

HMNPIDAHVGARVRLRRMLIGMSQEKLGELLGVTFQQIQKYEKGANRIGASRLYEVSRVLDVPVQYFFDDM
soluble fraction (log2): -3.66

HMNPLDGTSVHPESYEAAEKLLKKQGFSLEDISGGKLTGLSLTIKDYARLAKELEIGEITLRDIVKELEK
soluble fraction (log2): -0.132

HMNPLHYKAAHWVREGLFDDLKSFVELETRINSIFEEKDRGDVFEIFIEGYRSFSKWRALVLRLA
soluble fraction (log2): -0.365

HMNPNEVQIPDLVNKTEEEAEQILKDLKLKLVVKSEEYDENIEKGKIISQDPTYKENYKIKEHSEISVIIS
soluble fraction (log2): 0.586

HMNPNPFVNLSPRELEVLNLLFKGYGVLEISNELNIGQTTASTFKSRILKKTSTHSVVELIKLAEQYGFIP
soluble fraction (log2): -0.85

HMNPNPYIVLGVDKSMPFGEIKKVYQRKRREFHPDSLVAKGLPDELLQKAQDKFIAIQEAYKSIEKNQV
soluble fraction (log2): 0.44

HMNPNSIDEKLKLLSNREKEVAILVLKKLSYFEISEQLNITIRTVKAHTKNIYEKFNVSNRLAFLLLFN
soluble fraction (log2): -0.00667

HMNPSAFSEYSFELLQSALLKKKIDENLSNQTIARDAGVSEAFVQKVLTNNVKRPSVKNRVRMISYLGLD
soluble fraction (log2): -1.47

HMNPSFTMGTRIKEYIDAHYLEDLKLADIAEALHINLYYLSHTFKDLTGSSPMQYIIRRRIEE
soluble fraction (log2): -0.857

HMNPSPYLRRHLSGDWGDLDEDDRRSNDAALASGEARLLSSYQVDPDLKLWIITEWDRSVTTLLLPSE
soluble fraction (log2): -0.0994

HMNPTLPYGFAKRHGVILLEAGEVAVVGLREGADPAALIETRRALGRPLRVEPLDQATFDRRLSQVYA
soluble fraction (log2): -0.512

HMNPTSLTFRSNVKDGKVYVDGIFKGSSDLDFDLPKGRHSIRIEKDGYVPFAKTINLIKALVIDFNMEKA
soluble fraction (log2): -2.02

HMNPTTQIQYNLPKSEFVSIYIYDLIGNRVKSLINNYQDAGYKSVYWDAMNDLGQPVSAGMYIY
soluble fraction (log2): -0.0727

HMNQKKFIQADYEDRLFDHLAFEVKDMEKIISMMRREKFTITDEPFRLSPTGSLIAFVEDPDRTLIELIER
soluble fraction (log2): -0.41

HMNQNAMIGAHIRNLRLAKKLTLKQLSDESGLSVGFLSQLERGMSSIAIDTLARLAHILGADLSSFF
soluble fraction (log2): -2.65

HMNQRQLQIKQMLDVAQEVFLKQLKTVFPDVSEMTIRRDLILLEDMGYAVRTHGGAVSINRF
soluble fraction (log2): -2.42

HMNQRTATVTASQLNVRSGPSTAYSIVHVLRQGETVEVIGESDGWYQIRLKDGRVGWSSGQYLNLN
soluble fraction (log2): -0.142

HMNQSAVMAERMKQTKNRILQTAKEIFLEQGYKRTTIRQIVERSGITSGSIYNIFSSKEEIFSALVDDL
soluble fraction (log2): -3

HMNQSYQLWIKDDELGPTPRSVGVLNEHFEVDPAALTNYDAELLRRATFGISLEPRGGSPTGQP
soluble fraction (log2): -0.192

HMNQTPQISYSQFIADVRSGQIKDVNIDSDNRTIVGHKFSGEEFTTFSPGDNKLVDELLNYNVEIKTSP
soluble fraction (log2): 0.611

HMNREEFLSQLERLLYDIPAQEREEALEYYNGYFDDAGKEKEAEVIQELGSPGKVAAIIKADLSG
soluble fraction (log2): 0.12

HMNRETAISIYRILHILEEPYKEVFTLRTLGDLSYREIADIFGKQENWARVTYHRAKLKIREALVS
soluble fraction (log2): -2.23

HMNRIFQERVVPAELDTLRADKVAASLFSDFSRNELAHWIKMGDLSINGGVKKAKDKLFEGDVLILDVEIV
soluble fraction (log2): -0.944

HMNRKILVLLAGKEQITDNVSVMQSIHRYAFINTATINKAQHEILIEKEEIRQEALTLIHEFLK
soluble fraction (log2): -0.97

HMNRKLKAKATREKIYKSAEKLFSQNDYNKVSVDAIVEAAGVAKGSFYVHFASKDALIAMLINDH
soluble fraction (log2): -0.448

HMNRMKLLREQHNLSQTDLAKILNISRQSYNFYENEKRDPDTTMLIRIADFFNVSLDYLLGRTNN
soluble fraction (log2): -2.84

HMNRPYVELFSGLGQEEAQQIVQKLQEDEVDYKFSGDSTILVKEDVVDQTKATLVQEGYPKS
soluble fraction (log2): 0.153

HMNSEEINDVRKAVDELPTHLREILLLNYFQQMSYVQISDSLEIPLGTVKSRLHAAVAAFRNAWQSSQEE
soluble fraction (log2): -0.484

HMNSEELFLRRIAQELIDQHGKDLHRIIVVLPSNRSKVFLKKFLFEILGSAFLTPQLMLLPQFVKSIV
soluble fraction (log2): -0.425

HMNSFGWESFVGEKGVTDTDLRPSGWIVIKDKRLFALTEGTFIEKGVSVEILSVEGNRIVVREIS
soluble fraction (log2): -2.9

HMNSHKIIDRLNQMITEKDLSEEMPAITEAFKNNERSAEDLKKYVAENLSKKLNAEEREKFVSLILQYRN
soluble fraction (log2): -0.0788

HMNSILFAITKEGGVVYGGKPVGVNGVRPLVRRLLQSEEMPVILQVDEKADAGLVIRVIDESKLGGASKV
soluble fraction (log2): -0.372

HMNSIQEQIEKYVYSLAPVTIERYESLKNGDIEDIEFEKLRKSISSKIINEKIDNKKQVAILSHLKKMYSD
soluble fraction (log2): -0.159

HMNSKIIVESIIKSKNGIAKVADLVEGGVSRQSIKKMYADGYIKRISRGYYTLTSEPVSSDEQVISS
soluble fraction (log2): -0.645

HMNSKMTYSELITSMENKEVESVKISSSGDVASVKLKNSKTEKEVKIPSLDSFMTYTEQYLKTGEITLEE
soluble fraction (log2): 0.0529

HMNSKMTYSELVTNITNKEVESIKISSTGSTASVKLKNSKSEKEVNIPSLDSFMSYTEEYLKTGDFTLDEE
soluble fraction (log2): 0.586

HMNSLKNKNNLIALVGASNDKNKYGNKILLDLVSKGHNVVPINPKEDTVAGLKSYNNVSELSEKPSI
soluble fraction (log2): -0.523
